# Laboratory results reported in article PMC7782793, “Hydroxamic acid-modified peptide microarrays for profiling isozyme-selective interactions and inhibition of histone deacetylases” (Nature Communications, 2021).
# Starred links: 1 amine or outer side, 2 acyl side, 3 side chain; linkers in the order of their positions; H or OH if unused. Non-standard residues stand in square brackets, D forms with d. Residues, ends and D or L forms follow the SMILES beside them. Primed or numbered codes have the meaning given here. No end group written: not given here. Asuha″ = L-2-amino-8-(hydroxyamino)-8-oxooctanoic acid, O=C(CCCCC[C@H](N[*:1])C(=O)[*:2])NO; Asuha = 2-aminosuberic acid hydroxamate, O=C(CCCCC[C@H](N[*:1])C(=O)[*:2])NO[*:3]
# Tests used:
# Experiment in all cases: Recombinant HDAC µSPOT microarray binding assay;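 on Bottom (dose-response curve fit): peptide spots on cellulose slides incubated with rising HDAC enzyme concentrations, imaged together, four-parameter logistic fit, EC50 is enzyme concentration giving half-maximal binding signal, two experiments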;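 on Bottom (dose-response fit): slides with spotted peptides incubated with six HDAC concentrations in HEPES buffer pH 7.4, spot intensities fitted by four-parameter logistic, EC50 as enzyme concentration giving half-maximal binding signal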;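 on Bottom: relative spot intensity from the six enzyme-concentration slides imaged together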;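 on Top (dose-response curve fit): peptide spots on cellulose slides incubated with rising HDAC enzyme concentrations, imaged together, four-parameter logistic fit, EC50 is enzyme concentration giving half-maximal binding signal, two experiments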;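 on Top (dose-response fit): slides with spotted peptides incubated with six HDAC concentrations in HEPES buffer pH 7.4, spot intensities fitted by four-parameter logistic, EC50 as enzyme concentration giving half-maximal binding signal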;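 on Top: relative spot intensity from the six enzyme-concentration slides imaged together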
# HDAC8 = target: T1, HDAC8 (Homo sapiens, UniProt Q9BY41);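 further: peptide µSPOT slides incubated with varying HDAC enzyme concentrations, imaged signal intensity fitted by four-parameter variable-slope regression, EC50 is enzyme concentration giving half-maximal binding, pH 7.4 HEPES buffer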;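 on Bottom: relative spot intensity from the six enzyme-concentration slides imaged together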;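 on Top: relative spot intensity from the six enzyme-concentration slides imaged together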
# T1 construct: HDAC8 (full length, C-terminal His tag, BPS Bioscience, cat. #: 50008); purchased BPS Bioscience 50008
# T1 sequence (Q9BY41 1-377): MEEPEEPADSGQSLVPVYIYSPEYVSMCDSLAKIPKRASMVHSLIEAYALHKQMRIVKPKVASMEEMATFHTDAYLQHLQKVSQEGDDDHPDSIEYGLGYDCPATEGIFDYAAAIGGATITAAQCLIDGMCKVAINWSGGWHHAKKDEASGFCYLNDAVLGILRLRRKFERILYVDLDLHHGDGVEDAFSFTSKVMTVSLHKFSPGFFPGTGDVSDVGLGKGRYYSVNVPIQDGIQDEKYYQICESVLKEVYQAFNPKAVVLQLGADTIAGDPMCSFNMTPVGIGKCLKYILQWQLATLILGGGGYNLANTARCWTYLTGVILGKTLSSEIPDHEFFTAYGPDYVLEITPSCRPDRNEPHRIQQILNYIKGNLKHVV
# HDAC2 = target: T2, HDAC2 (Homo sapiens, UniProt Q92769); settings: for Bottom / HillSlope / Top: dose-response fit parameter, µSPOT microarray, H4 K12X (X = Asuha) peptides, HDAC2; for Bottom (Value) / Top (Value) / HillSlope (Value): HDAC2 microarray dose-response curve fit, X = Asuha, sheet Fig. 3 HDAC2; for Bottom (Value): bottom plateau; for Top (Value): top plateau;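 on Top: relative spot intensity from the six enzyme-concentration slides imaged together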;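 on all read-outs here: Cellulose-bound peptide spots on slides incubated with six HDAC enzyme concentrations, binding intensity read, four-parameter variable-slope fit, EC50 is enzyme concentration giving half-maximal binding, in HEPES buffer pH 7.4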
# T2 construct: HDAC2 (full length, C-terminal His tag, BPS Bioscience, cat. #: 50002); purchased BPS Bioscience 50002
# Experimental: Experiments were performed twice, data were obtained with Array Analyze software (Active Motif), and data analysis and representation were performed with the GraphPad Prism 7 software. Outliers were curated manually and data were fitted to nonlinear regression [log(agonist) vs. response—variable slope (four parameters)]. […] Non-sigmoidal curves were denoted as not determined (N.D.) The pEC50 values were determined as the concentration of HDAC enzyme required for half-maximal binding signal.
# HDAC3/NCoR2 = target: T3, HDAC3/NCoR2 (Homo sapiens, UniProt O15379); settings: for Bottom (dose-response curve fit): fitted bottom plateau of binding signal; for Top (dose-response curve fit): fitted top plateau of binding signal;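 on Top: relative spot intensity from the six enzyme-concentration slides imaged together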;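 on all read-outs here: peptide spots on cellulose slides incubated with rising HDAC enzyme concentrations, imaged together, four-parameter logistic fit, EC50 is enzyme concentration giving half-maximal binding signal, two experiments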
# T3 construct: HDAC3/NCoR2 (full length, C-terminal His tag, NCoR2 N-terminal GST tag); purchased BPS Bioscience 50003
# HDAC1 = target: T4, HDAC1 (Homo sapiens, UniProt Q13547); settings: µSPOT microarray; for Bottom (dose-response fit): fitted bottom plateau of the binding curve; for Top (dose-response fit): fitted top plateau of the binding curve;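 on Top: relative spot intensity from the six enzyme-concentration slides imaged together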;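 on all read-outs here: slides with spotted peptides incubated with six HDAC concentrations in HEPES buffer pH 7.4, spot intensities fitted by four-parameter logistic, EC50 as enzyme concentration giving half-maximal binding signal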
# T4 construct: HDAC1 (full length, C-terminal His tag, C-terminal FLAG tag, BPS Bioscience, cat. #: 50051); FLAG (C); purchased BPS Bioscience 50051
# [1] = dose-response fit parameter, µSPOT microarray, H4 K12X (X = Asuha) peptides, HDAC8
# [2] = dose-response fit parameter, µSPOT microarray, H4 K12X (X = Asuha) peptides, HDAC3
# [3] = dose-response fit parameter, H4 K12X (X = Asuha) peptides, HDAC1
# [4] = HDAC8 µSPOT microarray dose-response fit, Bottom Value, X = Asuha, sheet Fig. 3 HDAC8
# [5] = HDAC8 µSPOT microarray dose-response fit, HillSlope Value, X = Asuha, sheet Fig. 3 HDAC8
# [6] = HDAC8 µSPOT microarray dose-response fit, Top Value, X = Asuha, sheet Fig. 3 HDAC8
# [7] = HDAC3 µSPOT microarray, Fig. 3, Hill slope of dose-response fit, X = Asuha
# [8] = HDAC3 µSPOT microarray, Fig. 3, X = Asuha
# [9] = recombinant HDAC1, Fig. 3, X = Asuha, Hill slope of the binding curve
# [10] = recombinant HDAC1, Fig. 3, X = Asuha
# T4 sequence (Q13547 whole entry): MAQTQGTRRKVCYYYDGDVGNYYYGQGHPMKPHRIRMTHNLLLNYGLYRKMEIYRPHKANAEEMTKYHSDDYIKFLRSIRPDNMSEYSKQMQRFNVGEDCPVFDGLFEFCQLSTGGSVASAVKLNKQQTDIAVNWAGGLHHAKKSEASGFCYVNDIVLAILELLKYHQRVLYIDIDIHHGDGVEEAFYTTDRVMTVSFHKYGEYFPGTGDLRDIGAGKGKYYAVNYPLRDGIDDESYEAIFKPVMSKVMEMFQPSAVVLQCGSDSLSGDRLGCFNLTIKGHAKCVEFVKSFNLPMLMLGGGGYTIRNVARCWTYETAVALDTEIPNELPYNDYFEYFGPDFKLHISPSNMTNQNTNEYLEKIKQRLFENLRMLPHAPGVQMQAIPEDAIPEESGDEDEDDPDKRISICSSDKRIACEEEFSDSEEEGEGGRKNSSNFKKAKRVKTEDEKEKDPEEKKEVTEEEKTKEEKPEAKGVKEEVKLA
# T2 sequence (Q92769 whole entry): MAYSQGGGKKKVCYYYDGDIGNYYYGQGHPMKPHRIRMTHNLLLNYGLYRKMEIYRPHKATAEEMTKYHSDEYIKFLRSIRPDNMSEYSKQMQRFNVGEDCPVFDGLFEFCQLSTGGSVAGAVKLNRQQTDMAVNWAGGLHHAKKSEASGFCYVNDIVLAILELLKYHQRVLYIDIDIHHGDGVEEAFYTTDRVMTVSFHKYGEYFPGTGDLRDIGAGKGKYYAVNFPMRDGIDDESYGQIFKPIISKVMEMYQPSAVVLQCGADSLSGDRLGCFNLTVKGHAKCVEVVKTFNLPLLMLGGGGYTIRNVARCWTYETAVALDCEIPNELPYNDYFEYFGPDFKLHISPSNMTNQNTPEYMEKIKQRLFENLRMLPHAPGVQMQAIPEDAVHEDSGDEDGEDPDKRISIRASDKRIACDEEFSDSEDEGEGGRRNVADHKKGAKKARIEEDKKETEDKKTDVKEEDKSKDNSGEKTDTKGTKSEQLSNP
# T3 sequence (O15379 whole entry): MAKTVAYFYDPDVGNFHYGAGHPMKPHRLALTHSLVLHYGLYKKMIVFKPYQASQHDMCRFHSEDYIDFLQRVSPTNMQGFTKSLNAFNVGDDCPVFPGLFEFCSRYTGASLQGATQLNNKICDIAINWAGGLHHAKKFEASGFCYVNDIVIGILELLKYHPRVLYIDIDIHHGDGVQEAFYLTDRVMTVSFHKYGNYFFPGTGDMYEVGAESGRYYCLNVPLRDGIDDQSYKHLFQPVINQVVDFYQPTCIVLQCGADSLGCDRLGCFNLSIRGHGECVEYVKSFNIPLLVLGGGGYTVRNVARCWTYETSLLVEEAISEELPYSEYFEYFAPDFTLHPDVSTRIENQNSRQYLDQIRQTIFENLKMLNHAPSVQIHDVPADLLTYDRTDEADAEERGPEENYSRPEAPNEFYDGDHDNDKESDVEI
# T3 sequence (Q9Y618 389-480 partner limits assumed): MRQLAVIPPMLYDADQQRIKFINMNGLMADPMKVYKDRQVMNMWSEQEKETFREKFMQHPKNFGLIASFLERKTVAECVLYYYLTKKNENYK
molecule,measurement,setting,value
P10 (KGLG[Asuha]GGAK),Bottom,HDAC8; [1],0.03
same,HillSlope,HDAC8; [1],10.49
same,Top,HDAC8; [1],0.13
same,Bottom,HDAC2,0.03
same,HillSlope,HDAC2,1.44
same,Top,HDAC2,0.39
same,Bottom,HDAC3/NCoR2; [2],0.06
same,HillSlope,HDAC3/NCoR2; [2],4.03
same,Top,HDAC3/NCoR2; [2],0.95
same,LogEC50 (M),"HDAC3/NCoR2; log of EC50 in M, dose-response fit, µSPOT microarray, H4 K12X (X = Asuha) peptides, HDAC3",-8.87 M
same,Bottom,HDAC1; [3],0.02
same,HillSlope,HDAC1; [3],0.6
same,Top,HDAC1; [3],1.69
"H2B 67-82 (NDIFERIAGEASRLAH; UniProt P06899 68-83, looked up, fragment)",Bottom,HDAC8; [4],0.03
same,HillSlope,HDAC8; [5],0.69
same,Top,HDAC8; [6],4.21
same,Bottom (Value),HDAC2,0.02
same,Top (Value),HDAC2,6.33
same,HillSlope (Value),HDAC2,0.44
same,HillSlope,HDAC3/NCoR2; [7],1.68
same,Bottom (dose-response curve fit),HDAC3/NCoR2; [8],0.01
same,Top (dose-response curve fit),HDAC3/NCoR2; [8],0.39
same,HillSlope,HDAC1; [9],1.51
same,Bottom (dose-response fit),HDAC1; [10],0.04
same,Top (dose-response fit),HDAC1; [10],1.04
"H2A 46-61 (GAPVYLAAVLEYLTAE; UniProt P0C0S8 47-62, looked up, fragment)",Bottom,HDAC8; [4],0.02
same,HillSlope,HDAC8; [5],0.58
same,Top,HDAC8; [6],21.03
same,Bottom (Value),HDAC2,0.01
same,Top (Value),HDAC2,27.24
same,HillSlope (Value),HDAC2,0.62
same,HillSlope,HDAC3/NCoR2; [7],1.43
same,Bottom (dose-response curve fit),HDAC3/NCoR2; [8],0.01
same,Top (dose-response curve fit),HDAC3/NCoR2; [8],0.51
same,HillSlope,HDAC1; [9],1.25
same,Bottom (dose-response fit),HDAC1; [10],0.02
same,Top (dose-response fit),HDAC1; [10],0.24
"H2A 16-31 (TRSSRAGLQFPVGRVH; microarray-immobilized; UniProt P0C0S8 17-32, looked up, fragment)",Bottom,HDAC8; [4],0.05
same,HillSlope,HDAC8; [5],6.81
same,Top,HDAC8; [6],0.12
same,Bottom (Value),HDAC2,0.04
same,Top (Value),HDAC2,3.35
same,HillSlope (Value),HDAC2,1.17
same,HillSlope,HDAC3/NCoR2; [7],0.97
same,Bottom (dose-response curve fit),HDAC3/NCoR2; [8],0.01
same,Top (dose-response curve fit),HDAC3/NCoR2; [8],0.73
same,HillSlope,HDAC1; [9],1
same,Bottom (dose-response fit),HDAC1; [10],0.03
same,Top (dose-response fit),HDAC1; [10],1.15
same,LogEC50 (M),"HDAC1; recombinant HDAC1, Fig. 3, X = Asuha, values are log10 of EC50 in M",-7.63 M
CC[C@H](C)[C@H](NC(=O)[C@H](CCC(=O)O)NC(=O)[C@H](CCCNC(=N)N)NC(=O)[C@H](CO)NC(=O)[C@@H](NC(=O)[C@@H](NC(=O)[C@@H](NC(C)=O)[C@@H](C)O)[C@@H](C)CC)[C@@H](C)O)C(=O)N[C@@H](CCC(N)=O)C(=O)N[C@H](C(=O)N[C@@H](C)C(=O)N[C@H](C(=O)N[C@@H](CCCNC(=N)N)C(=O)N[C@@H](CC(C)C)C(=O)N[C@@H](CC(C)C)C(=O)N[C@@H](CC(C)C)C(=O)N1CCC[C@H]1C(N)=O)C(C)C)[C@@H](C)O [H2B 88-103] (Ac-TITSREIQTAVRLLLP-NH2),Bottom,HDAC8; [4],0.03
same,HillSlope,HDAC8; [5],10.85
same,Top,HDAC8; [6],0.09
same,Bottom (Value),HDAC2,0.04
same,Top (Value),HDAC2,0.21
same,HillSlope (Value),HDAC2,1.75
same,HillSlope,HDAC3/NCoR2; [7],1.33
same,Bottom (dose-response curve fit),HDAC3/NCoR2; [8],0.01
same,Top (dose-response curve fit),HDAC3/NCoR2; [8],0.74
same,HillSlope,HDAC1; [9],1.19
same,Bottom (dose-response fit),HDAC1; [10],0.05
same,Top (dose-response fit),HDAC1; [10],1.11
"H2B 64-79 (SFVNDIFERIAGEASR; UniProt P62807 65-80, looked up, fragment)",Bottom,HDAC8; [4],0.02
same,HillSlope,HDAC8; [5],0.72
same,Top,HDAC8; [6],1.17
same,Bottom (Value),HDAC2,0.01
same,Top (Value),HDAC2,12.73
same,HillSlope (Value),HDAC2,0.33
same,HillSlope,HDAC3/NCoR2; [7],1.87
same,Bottom (dose-response curve fit),HDAC3/NCoR2; [8],0.01
same,Top (dose-response curve fit),HDAC3/NCoR2; [8],0.22
same,HillSlope,HDAC1; [9],1.09
same,Bottom (dose-response fit),HDAC1; [10],0.03
same,Top (dose-response fit),HDAC1; [10],1.21
"H2A 49-64 (VYLAAVLEYLTAEILE; UniProt P0C0S8 50-65, looked up, fragment)",Bottom,HDAC8; [4],0.02
same,HillSlope,HDAC8; [5],0.49
same,Top,HDAC8; [6],6.68
same,Bottom (Value),HDAC2,0.02
same,Top (Value),HDAC2,0.44
same,HillSlope (Value),HDAC2,0.89
same,HillSlope,HDAC3/NCoR2; [7],1.38
same,Bottom (dose-response curve fit),HDAC3/NCoR2; [8],0
same,Top (dose-response curve fit),HDAC3/NCoR2; [8],0.57
same,HillSlope,HDAC1; [9],1.26
same,Bottom (dose-response fit),HDAC1; [10],0.01
same,Top (dose-response fit),HDAC1; [10],0.2
"H2A 19-34 (SRAGLQFPVGRVHRLL; UniProt P04908 20-35, looked up, fragment)",Bottom,HDAC8; [4],0.05
same,HillSlope,HDAC8; [5],8.22
same,Top,HDAC8; [6],0.14
same,Bottom (Value),HDAC2,0.04
same,Top (Value),HDAC2,76.12
same,HillSlope (Value),HDAC2,0.81
same,HillSlope,HDAC3/NCoR2; [7],1.37
same,Bottom (dose-response curve fit),HDAC3/NCoR2; [8],0.02
same,Top (dose-response curve fit),HDAC3/NCoR2; [8],0.67
same,HillSlope,HDAC1; [9],0.75
same,Bottom (dose-response fit),HDAC1; [10],0.02
same,Top (dose-response fit),HDAC1; [10],2.31
P13 (GLG[Asuha″]GGA),HillSlope (Value),"HDAC8; Hill slope of the µSPOT microarray dose-response fit, X = Asuha peptides",17.49
same,Bottom (Value),"HDAC8; fitted bottom of the µSPOT microarray dose-response curve, X = Asuha peptides",0.01
same,Top (Value),"HDAC8; fitted top of the µSPOT microarray dose-response curve, X = Asuha peptides",0.03
same,Bottom,HDAC2,0.01
same,HillSlope,HDAC2,8.37
same,Top,HDAC2,0.04
same,Bottom,HDAC3/NCoR2; [2],-0.01
same,HillSlope,HDAC3/NCoR2; [2],0.48
same,Top,HDAC3/NCoR2; [2],24.94
same,Bottom,HDAC1; [3],0.02
same,HillSlope,HDAC1; [3],0.73
same,Top,HDAC1; [3],0.36
"H2B 61-76 (IMNSFVNDIFERIAGE; UniProt P62807 62-77, looked up, fragment)",Bottom,HDAC8; [4],-0.5
same,HillSlope,HDAC8; [5],0.02
same,Top,HDAC8; [6],0.56
same,Bottom (Value),HDAC2,0.02
same,Top (Value),HDAC2,0.12
same,HillSlope (Value),HDAC2,1.69
same,HillSlope,HDAC3/NCoR2; [7],1.99
same,Bottom (dose-response curve fit),HDAC3/NCoR2; [8],0.01
same,Top (dose-response curve fit),HDAC3/NCoR2; [8],0.17
same,HillSlope,HDAC1; [9],1.29
same,Bottom (dose-response fit),HDAC1; [10],0.03
same,Top (dose-response fit),HDAC1; [10],1.15
"H2A 79-94 (IPRHLQLAIRNDEELN; UniProt P0C0S8 80-95, looked up, fragment)",Bottom,HDAC8; [4],0.02
same,HillSlope,HDAC8; [5],7.17
same,Top,HDAC8; [6],0.12
same,Bottom (Value),HDAC2,0.02
same,Top (Value),HDAC2,40.23
same,HillSlope (Value),HDAC2,1.01
same,HillSlope,HDAC3/NCoR2; [7],1.48
same,Bottom (dose-response curve fit),HDAC3/NCoR2; [8],0.01
same,Top (dose-response curve fit),HDAC3/NCoR2; [8],0.69
same,HillSlope,HDAC1; [9],1.08
same,Bottom (dose-response fit),HDAC1; [10],0.02
same,Top (dose-response fit),HDAC1; [10],19.1
